From paper PMC8930183, “Structure of the Pf12 and Pf41 heterodimeric complex of Plasmodium falciparum 6-cysteine proteins” (FEMS Microbes, 2022)

B1: Pf41 D1D2 (residues 21-368), untagged [Plasmodium falciparum] / octa-histidine tagged Pf12 D1D2 (residues 28-304) [Plasmodium falciparum] (parent complex)
chain 1: KSHKCDFTKEKYLLSGEKEVSCEIDANPSDDITFICPNKIDSLCFHTVNISKNINQNKSTMSIQDLLYGSVVYGNTLFISPYVRTNTPFYCFCNLDTVTIQKFLKINRFLKDDDELSEADVMKHLKGGNVSEAQADEYLNKALNRFKKMKDLSKFFNDQADNTTKLNLPKSLNIPNDILNYDVYNSSNNRNDIVVKDEVTNKQIISKRGIMSVFVRSNNNVIKGCDFGNNNKNYFSHPISVAGKVNNKVCKIQGKPGELVGFKCAFEENGKVEPPNCFDQVLHKNKVTDLKTLIPGYASYTNKHSSKYPYYLKIPHFVNEQYTIQCKCKSNNSQNEYTFELDIQPGES
chain 2: NLTCDFNDVYKLEFHPNQQTSVTKLCNLTPNVLEKVTIKCGSDKLNYNLYPPTCFEEVYASRNMMHLKKIKEFVIGSSMFMRRSLTPNKINEVSFRIPPNMMPEKPIYCFCENKKTITINGSNGNPSSKKDIINRGIVEIIIPSLNEKVKGCDFTTSESTIFSKGYSINEISNKSSNNQQDIVCTVKAHANDLIGFKCPSNYSVEPHDCFVSAFNLSGKNENLENKLKLTNIIMDHYNNTFYSRLPSLISDNWKFFCVCSKDNEKKLVFTVEASISS
B2: Pf12 D1D2 (residues 28-304), untagged [Plasmodium falciparum] / octa-histidine tagged Pf41 D1D2 (residues 21-368) [Plasmodium falciparum] (parent complex)
chain 1: B1 chain 2
chain 2: B1 chain 1

Variants of: B1
Experiment: BLI; mutant at 1000 nM, 500 nM, and 250 nM; binding to immobilised WT Pf12; parent: 100; read off a plot

Row | Variant | percent of parent [% WT]
1 | chain 1 KSHKCDFTKEKYLLSGEKEVSCEIDANPSDDITFICPNKIDSLCFHTVNISKNINQNKSTMSIQDLLYGSVVYGNTLFISPYVRTNTPFYCFCNLDTVTIQKFLKINRFLKDDDELSEADVMKHLKGGNVSEAQADEYLNKALNRFKKMKDLSKFFNDQADNTTKLNLPKSLNIPNDILNYDVYNSSNNRNDIVVKDEVTNKQIISKRGIMSVFVRSNNNVIKGCDFGNNNKNYFSHPISVAGKVNNKVCKIQGKPGELVGFKCAFEENGKVEPPNCFDQVLHKNKVTDLKTLIPGYASYTNKHSSKYPYYLKIPHFVAEQYTIQCKCKSNNSQNEYTFELDIQPGES [chain 1 N319A] | ~36
2 | chain 1 KSHKCDFTKEKYLLSGEKEVSCEIDANPSDDITFICPNKIDSLCFHTVNISKNINQNKSTMSIQDLLYGSVVYGNTLFISPYVRTNTPFYCFCNLDTVTIQKFLKINRFLKDDDELSEADVMKHLKGGNVSEAQADEYLNKALNRFKKMKDLSKFFNDQADNTTKLNLPKSLNIPNDILNYDVYNSSNNRNDIVVKDEVTNKQIISKRGIMSVFVRSNNNVIKGCDFGNNNKNYFSHPISVAGKVNNKVCKIQGKPGELVGFKCAFEENGKVEPPNCFDQVLHKNKVTDLKTLIPGYASYTNKHSSKYPYYLKIPAFVNEQYTIQCKCKSNNSQNEYTFELDIQPGES [chain 1 H316A] | ~75
3 | chain 1 KSHKCDFTKEKYLLSGEKEVSCEIDANPSDDITFICPNKIDSLCFHTVNISKNINQNKSTMSIQDLLYGSVVYGNTLFISPYVRTNTPFYCFCNLDTVTIQKFLKINRFLKDDDELSEADVMKHLKGGNVSEAQADEYLNKALNRAKKMKDLSKFFNDQADNTTKLNLPKSLNIPNDILNYDVYNSSNNRNDIVVKDEVTNKQIISKRGIMSVFVRSNNNVIKGCDFGNNNKNYFSHPISVAGKVNNKVCKIQGKPGELVGFKCAFEENGKVEPPNCFDQVLHKNKVTDLKTLIPGYASYTNKHSSKYPYYLKIPHFVNEQYTIQCKCKSNNSQNEYTFELDIQPGES [chain 1 F146A] | ~37
4 | chain 1 KSHKCDFTKEKYLLSGEKEVSCEIDANPSDDITFICPNKIDSLCFHTVNISKNINQNKSTMSIQDLLYGSVVYGNTLFISPYVRTNTPFYCFCNLDTVTIQKFLKINRFLKDDDELSEADVMKHLKGGNVSEAQADEYLNKALNRLKKMKDLSKFFNDQADNTTKLNLPKSLNIPNDILNYDVYNSSNNRNDIVVKDEVTNKQIISKRGIMSVFVRSNNNVIKGCDFGNNNKNYFSHPISVAGKVNNKVCKIQGKPGELVGFKCAFEENGKVEPPNCFDQVLHKNKVTDLKTLIPGYASYTNKHSSKYPYYLKIPHFVNEQYTIQCKCKSNNSQNEYTFELDIQPGES [chain 1 F146L] | ~122
5 | chain 1 KSHKCDFTKEKYLLSGEKEVSCEIDANPSDDITFICPNKIDSLCFHTVNISKNINQNKSTMSIQDLLYGSVVYGNTLFISPYVRTNTPFYCFCNLDTVTIQKFLKINRFLKDDDELSEADVMKHLKGGNVSEAQADEYLNKALNRFKKMKDLSKFFNDQADNTTKLNLPKSLNIPNDILNYDVYNSSNNRNDIVVKDEVTNKQIISKRGIMSVFVRSNNNVIKGCDFGNNNKNYFSHPISVAGKVNNKVCKIQGKPGELVGFKCAFEENGKVEPPNCFDQVLHKNKVTDLKTLIPGYASYTNKHSSKYPYYLKIPHAVNEQYTIQCKCKSNNSQNEYTFELDIQPGES [chain 1 F317A] | ~1
6 | chain 1 KSHKCDFTKEKYLLSGEKEVSCEIDANPSDDITFICPNKIDSLCFHTVNISKNINQNKSTMSIQDLLYGSVVYGNTLFISPYVRTNTPFYCFCNLDTVTIQKFLKINRFLKDDDELSEADVMKHLKGGNVSEAQADEYANKALNRFKKMKDLSKFFNDQADNTTKLNLPKSLNIPNDILNYDVYNSSNNRNDIVVKDEVTNKQIISKRGIMSVFVRSNNNVIKGCDFGNNNKNYFSHPISVAGKVNNKVCKIQGKPGELVGFKCAFEENGKVEPPNCFDQVLHKNKVTDLKTLIPGYASYTNKHSSKYPYYLKIPHFVNEQYTIQCKCKSNNSQNEYTFELDIQPGES [chain 1 L139A] | ~4
7 | chain 1 KSHKCDFTKEKYLLSGEKEVSCEIDANPSDDITFICPNKIDSLCFHTVNISKNINQNKSTMSIQDLLYGSVVYGNTLFISPYVRTNTPFYCFCNLDTVTIQKFLKINRFLKDDDELSEADVMKHLKGGNVSEAQADEYLNKAANRFKKMKDLSKFFNDQADNTTKLNLPKSLNIPNDILNYDVYNSSNNRNDIVVKDEVTNKQIISKRGIMSVFVRSNNNVIKGCDFGNNNKNYFSHPISVAGKVNNKVCKIQGKPGELVGFKCAFEENGKVEPPNCFDQVLHKNKVTDLKTLIPGYASYTNKHSSKYPYYLKIPHFVNEQYTIQCKCKSNNSQNEYTFELDIQPGES [chain 1 L143A] | ~1
8 | chain 1 KSHKCDFTKEKYLLSGEKEVSCEIDANPSDDITFICPNKIDSLCFHTVNISKNINQNKSTMSIQDLLYGSVVYGNTLFISPYVRTNTPFYCFCNLDTVTIQKFLKINRFLKDDDELSEADVMKHLKGGNVSEAQADEYLNKALNRFKKMKDLSKFFNDQADNTTKLNLPKSLNIPNDILNYDVYNSSNNRNDIVVKDEVTNKQIISKRGIMSVFVRSNNNVIKGCDFGNNNKNYFSHPISVAGKVNNKVCKIQGKPGELVGFKCAFEENGKVEPPNCFDQVLHKNKVTDLKTLIPGYASYTNKHSSKYPYYLKIPHFVNEQYTIQCKCKSNNSQNEYTFELDIQPGAS [chain 1 E347A] | ~18
9 | chain 1 KSHKCDFTKEKYLLSGEKEVSCEIDANPSDDITFICPNKIDSLCFHTVNISKNINQNKSTMSIQDLLYGSVVYGNTLFISPYVRTNTPFYCFCNLDTVTIQKFLKINRFLKDDDELSEADVMKHLKGGNVSEAQADEYLNKALNRFKKMKDLSKFFNDQADNTTKLNLPKSLNIPNDILNYDVYNSSNNRNDIVVKDEVTNKQIISKRGIMSVFVRSNNNVIKGCDFGNNNKNYFSHPISVAGKVNNKVCKIQGKPGELVGFKCAFEENGKVEPPNCFDQVLHKNKVTDLKTLIPGYASYTNKHSSKYPYYLKIPHFVNAQYTIQCKCKSNNSQNEYTFELDIQPGES [chain 1 E320A] | ~103

Variants of: B2
Experiment: BLI; mutant at 1000 nM, 500 nM, and 250 nM; binding to immobilised WT Pf41; parent: 100; read off a plot

Row | Variant | percent of parent [% WT]
10 | chain 1 NLTCDFNDVYKLEFHPNQQTSVTKLCNLTPNVLEKVTIKCGSDKLNYNLYPPTCFEEVYASRNMMHLKKIKEFVIGSSMFMRRSLTPNKINEVSFRIPPNMMPEKPIYCFCENKKTITINGSNGNPSSKKDIINRGIVEIIIPSLNEKVKGCDFTTSESTIFSKGYSINEISNKSSNNQQDIVCTVKAHANDLIGFKCPSNYSVEPHDCFVSAFNLSGKNENLENKLKLTNIIMDHYNNTFYSRLPSLISDNWKFACVCSKDNEKKLVFTVEASISS [chain 1 F256A] | ~4
11 | chain 1 NLTCDFNDVYKLEFHPNQQTSVTKLCNLTPNVLEKVTIKCGSDKLNYNLYPPTCFEEVYASRNMMHLKKIKEFVIGSSMFMRASLTPNKINEVSFRIPPNMMPEKPIYCFCENKKTITINGSNGNPSSKKDIINRGIVEIIIPSLNEKVKGCDFTTSESTIFSKGYSINEISNKSSNNQQDIVCTVKAHANDLIGFKCPSNYSVEPHDCFVSAFNLSGKNENLENKLKLTNIIMDHYNNTFYSRLPSLISDNWKFFCVCSKDNEKKLVFTVEASISS [chain 1 R83A] | ~38
12 | chain 1 NLTCDFNDVYKLEFHPNQQTSVTKLCNLTPNVLEKVTIKCGSDKLNYNLYPPTCFEEVYASRNMMHLKKIKEFVIGSSMFMRRSLTPNKINEVSFRIPPNMMPEKPIYCFCENKKTITINGSNGNPSSKKDIINRGIVEIIIPSLNEKVKGCDFTTSESTIFSKGYSINEISNKSSNNQQDIVCTVKAHANDLIGFKCPSNYSVEPADCFVSAFNLSGKNENLENKLKLTNIIMDHYNNTFYSRLPSLISDNWKFFCVCSKDNEKKLVFTVEASISS [chain 1 H207A] | ~116
13 | chain 1 NLTCDFNDVYKLEFHPNQQTSVTKLCNLTPNVLEKVTIKCGSDKLNYNLYPPTCFEEVYASRNMMHLKKIKEFVIGSSMFMRRSLTPNKINEVSFRIPPNMMPEKPIYCFCENKKTITINGSNGNPSSKKDIINRGIVEIIIPSLNEKVKGCDFTTSESTIFSKGYSINEISNKSSNNQQDIVCTVKAHANDLIGFKCPSNYSVEPHDCFVSAANLSGKNENLENKLKLTNIIMDHYNNTFYSRLPSLISDNWKFFCVCSKDNEKKLVFTVEASISS [chain 1 F214A] | ~12
14 | chain 1 NLTCDFNDVYKLEFHPNQQTSVTKLCNLTPNVLEKVTIKCGSDKLNYNLYPPTCFEEVYASRNMMHLKKIKEFVIGSSMFMARSLTPNKINEVSFRIPPNMMPEKPIYCFCENKKTITINGSNGNPSSKKDIINRGIVEIIIPSLNEKVKGCDFTTSESTIFSKGYSINEISNKSSNNQQDIVCTVKAHANDLIGFKCPSNYSVEPHDCFVSAFNLSGKNENLENKLKLTNIIMDHYNNTFYSRLPSLISDNWKFFCVCSKDNEKKLVFTVEASISS [chain 1 R82A] | ~9
15 | chain 1 NLTCDFNDVYKLEFHPNQQTSVTKLCNLTPNVLEKVTIKCGSDKLNYNLYPPTCFEEVYASRNMMHLKKIKEFVIGSSMFMERSLTPNKINEVSFRIPPNMMPEKPIYCFCENKKTITINGSNGNPSSKKDIINRGIVEIIIPSLNEKVKGCDFTTSESTIFSKGYSINEISNKSSNNQQDIVCTVKAHANDLIGFKCPSNYSVEPHDCFVSAFNLSGKNENLENKLKLTNIIMDHYNNTFYSRLPSLISDNWKFFCVCSKDNEKKLVFTVEASISS [chain 1 R82E] | ~0
16 | chain 1 NLTCDFNDVYKLEFHPNQQTSVTKLCNLTPNVLEKVTIKCGSDKLNYNLYPPTCFEEVYASRNMMHLKKIKEFVIGSSMFMRRSLTPNKINEVSFEIPPNMMPEKPIYCFCENKKTITINGSNGNPSSKKDIINRGIVEIIIPSLNEKVKGCDFTTSESTIFSKGYSINEISNKSSNNQQDIVCTVKAHANDLIGFKCPSNYSVEPHDCFVSAFNLSGKNENLENKLKLTNIIMDHYNNTFYSRLPSLISDNWKFFCVCSKDNEKKLVFTVEASISS [chain 1 R96E] | ~3
17 | chain 1 NLTCDFNDVYKLEFHPNQQTSVTKLCNLTPNVLEKVTIKCGSDKLNYNLYPPTCFEEVYASRNMMHLKKIKEFVIGSSMFMRRSLTPNKINEVSFAIPPNMMPEKPIYCFCENKKTITINGSNGNPSSKKDIINRGIVEIIIPSLNEKVKGCDFTTSESTIFSKGYSINEISNKSSNNQQDIVCTVKAHANDLIGFKCPSNYSVEPHDCFVSAFNLSGKNENLENKLKLTNIIMDHYNNTFYSRLPSLISDNWKFFCVCSKDNEKKLVFTVEASISS [chain 1 R96A] | ~55
18 | chain 1 NLTCDFNDVYKLEFHPNQQTSVTKLCNLTPNVLEKVTIKCGSDKLNYNLYPPTCFEEVYASRNMMHLKKIKEFVIGSSMFMRRSLTPNKINEVSFRIPPNMMPEKPIYCFCENKKTITINGSNGNPSSKKDIINRGIVEIIIPSLNEKVKGCDFTTSESTIFSKGYSINEISNKSSNNQQDIVCTVKAHANDLIGFKCPSNYSVEPHDCFVSAFNLSGKNENLENKLKLTNIIMDHANNTFYSRLPSLISDNWKFFCVCSKDNEKKLVFTVEASISS [chain 1 Y237A] | ~2
